Laboratory results as given in US8673313B2, “Cell penetrating peptides and its use fused to biomolecules with therapeutic action” (priority 2007, dated 2014).

System: cellular immune response against the antigen E7 de HPV-16
Test: ELISPOT anti-IFN-γ of splenocytes of immunized mice
Assay type: in vivo, mice C57BL/6
Details: 30 μg s.c., 2 doses every 14 days, without adjuvant
Method: In order to evaluate the cellular immune response against the antigen E7 de HPV-16, 4 groups of 3 mice females C57BL/6, from 6 to 8 weeks of born, received 2 doses of immunogens. The group 1 was immunized with the 30 μg of the recombinant protein LALF-E7; group 2 with the 30 μg of the recombinant protein E7; group 3 with 8 μg of synthetic peptide LALF and group 4 with PBS. The immunizations were made of subcutaneous way in the flank of the animal with volumes of 0.2 mL and without adjuvant. Every 14 days were administered two doses. Seven days after the second immunization, the mice were sacrificed by break-up of the cervical and the splenocytes were removed aseptically for their later analysis in a test of ELISPOT anti-gamma interferon (anti-IFN-γ). The cellular suspensions of the animals by each group met in pool and they were homogenized smoothly. […]
The test for the determination of the IFN-γ secretion was made as described previously (Vazquez-Blomquist D. et al. (2002) Induction of a strong HIV-specific CD8+ T cell response in mice using a fowlpox virus vector expressing an HIV-1 multi-CTL-epitope polypeptide. Viral Immunol. 5(2):337-356). […] After this time, the surviving cells counted and were used for determinations of ELISPOT under the same conditions.
The results were expressed as a number of spot forming cells (SFC) per 10^6 splenocytes. […]

B1: LALF-E7: recombinant fusion of CPP LALF to E7 protein of HPV 16, cysteine per glycine in Rb site (SEQ ID N0. 9 y 10) (protein)
chain: MAEFHYRIKPTFRRLKWKYKGKFWKASHGDTPTLHEYMLDLQPETTDLYGYEQLNDSSEEEDEIDGPAGQAEPDRAHYNIVTFCCKCDSTLRLCVQSTHVDIRTLEDLLMGTLGIVCPICSQKPGSRAHHHHHH
modifications: Artificial Sequence Description Protein fusion CPP LALF-E7
Question: How did the “T CD8+ lymphocyte response” value turn out when B1 was run?
Answer: Its value is “effective response of T CD8^+ lymphocytes”.

Question: And the “number of SFC (IFN-γ secretor cells) relative to the groups immunized with VSSP and PBS” value (splenocytes 7 days after second immunization, FIG. 9)?
Answer: Its value is about 8 times.
